# Source: the nanobody polyreactivity screen of Harvey et al. (2022)
# Assay: yeast display, Sf9 membrane polyspecificity reagent, FACS + sequencing; frameworks hold sequencing errors
# How it was run: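 Polyreactivity labels are assigned by the sorting gate from which each nanobody was recovered. The gates were low and high (top ~1%), set on anti-HA fluorescence for expression and streptavidin fluorescence for reagent binding. Before sorting, galactose-induced (36–48 hours) yeast display cells were stained for 1 hour at 4 °C with 10% biotinylated, detergent-solubilized Sf9 membrane reagent.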
row,Sequence,polyreactivity (PSR sort gate)
1,QVQLVESGGGLVQAGGSLRLSCAASGFIFGQYAMGWYRQAPGKERELVAAISRSGGSTYYADSVKGRFTISRDNAKNTVYLQMNSLKPEDTAVYYCNRRDRGDSYRLDYWGQGTQVTVSS,high polyreactivity
2,QVQLVESGGGLVQAGGSLRLNCAASGRISTYYVMGWYRQAPGKERELVAAINWSDGSTYYADSVKGRFTISRDNAKNTVYFQMNSLKPEDTAVYYCNVDAGVEGGTVDYWGQGTQVTVSS,low polyreactivity
3,QVQLVESGGGLVQAGGSLRLSCAASGITFYRYAMGWYRQAPGKERELVAAITWSGGSTYYADSVKGRFTISRDNAKNTVYLQMNSLKPEDTAVYYCAVDYTPEDWGDDYWGQGTQVTVSS,low polyreactivity
4,QVQLVESGGGLVHAGGSLRLSCAGSGSTFRPYAMGWYRQAPGKERELVAAIRKIGGRTYYADSVKGRFTISRDNAKNTVYLQMNSLKPEDTAVYNCNKRIGGGVHAYNYWGQGTQVSVSS,low polyreactivity
5,QVKLVESGGGLVQAGGSLRLSSADSGFIFRRYAMGWYRQAPGKERELVAAINYSGGSTYYADSVKGRFTISRDHAKNTVYLQMNSPKPEYTAVYYCNAYGLRYYEYDYWGQGTQVTVSS,low polyreactivity
6,QVQLVESGGGLVEAGGSLRLSCAASGLTFEVYAMGWYRHAPGKERELVAVITSVGSTNYADSVKGRFTISRDNAKNTVYLQMNSLKPEDTAVYYCAADKWTVRRFNPYTYYRYDYWGQGTQVTVSS,low polyreactivity
7,QVQLVESGGGLVQAGGSLRLSCAASGTIIYLNAMAWYRQAPGKERELVAAITSGGSTYYADSVKGRFTISRDNAKNTVYVQMNSLKPEDTAVYYCAAFVWSGWGHWFYFWGQGTQVTVSS,high polyreactivity
8,QAQLQESGGSLVQAGGRLRLSCAASGYISVGSVMGWYRQAPSKERELVASIDQVANTNYADSVKGRFTISRDNAKNNVYLQMNSLKPEDTAVYYCATETTYILNYWGQVTQVTVSS,low polyreactivity
9,LVQLQECGGGLVQAGGSLRLSCAASGNIFDADIMGWYRQAPCKERELVASVTDGGSTNYADSVKGRFTISRDNAKNTVYLQMNSLKPEDTAVYYCEAIVYPDILTYFDYDYDYFYWGQGTQVTVGS,low polyreactivity
10,QVQLVESGGGLVQAGGSLRLSCAASGSIFYRYAMGWYRQAPGKERELVAAITQSTDSTYYADSVKGRFTISRDNAKNTVYLQMNSLKPEDSAVYYCDAYLVYYRPYAYGYWGQGTQVTVSS,low polyreactivity
11,QVQLVESGGGLVQAGGSLRLSCAASGITFGYYAMGWSRQAPGKERELVAAIRSSGGSTYYADSVKGRFTISRDNAKNNVYLQMNSLKPEDTAVYYCNARYRKSSRPGYEPYERYYWGQGTQVTVSS,high polyreactivity
12,QVQLVESGGGLVQAGGTLRLSCAASGFTFGFYAMGWYRQAPGKERELVAAITWSGGSTYYADSVKGRFTISRDNAKNTVYLQMNSLKPEDTAVYYCNAYTYGSEFDYWGQGTQVTVSS,high polyreactivity
13,QVQLVESGGGLVQAGGSLRLSCAASGIIFRFYARGWYRQAPGKERELVAAISSSGTRTYYADSVKGRFTISRDNAKNTVYLQMNSLKPEETAVYYCNAAYHYYDYDYWGQGTQVTVSS,high polyreactivity
14,QVQLVESGGGLVQAGGSLRLSCAASGSTFASNTMGWYRQAPGKERELVAAITQSGGTTYYAESVKGRFTISRDNAKNTVTLQMNSLKPEDTAVYYCATDVGYFYTVVGGYDYWGQGTQVTVSS,low polyreactivity
15,QVQLVESGGGLVQAGGSLRLSCAPSGRTFSRNAMGWYRQAPGKERELVAAISQRGVSTYYADSVKGSFTISRDNAQNSVYLQMNSLKPEDSAVYYCNTRGTYRYDYWGQGTQGTVSS,low polyreactivity
16,QVQLVESGGGLVQAGGSLRLSCAASGSTFGSNAMGWYRQAPGKERELVAAIRWSGGSTYYADSVKGRFTISRDNAKNTVYLQMNSLKPEDTAVYYFAGYYFQYNRRFNYWGQGTQVTVSS,high polyreactivity
17,QVQLVESGGGLVQAGGSLRLSCAASGSIFKRYAMGWYRQAPGKERELVAAITYNGGSTYYADSVKGRFTISRDNAKNTVYLQMNSLKPEDTAVYYCAAERYNGYDYWGQGTQVTVSS,high polyreactivity
18,QVQLVESGGGLVQAGGSLRLSCAASGGTFRAYVMGWYRQAPGKERELVAAISRSGTRTYYADSVKGRFTISRDNAKNTVYLQMNSLKPEDTAVYYCAAAAKSWLFDYWGQGTQVTVSS,high polyreactivity
19,HVQLEESGGGLVQAGGSLRLTCAASGSIFYAYAMGWYIPATGKERELVAVISNGGGSTYYADSVKGRFTISRDNSKNSVYLQMNSVKPEDTAVYFCAAVLAESVYYSDYDYWGQGTQVTVSS,low polyreactivity
20,QVQLVESGGGLVQAGGSLRLSCAASGRIFYINAMGWYRQAPGKERELVASITGSGGRTYYADSVKGRFTISRDNAKNTVYLQMNSLKPEDTAVYYCNADLYVGYLYYLYDYWGQGTQVSVSS,low polyreactivity
21,QVQLVESGGVLVQAGGSLRLSCAAYGFSFNDYAMGWYRQAPGKERELVAAIDWSGGRTYYADSVKGRFTISRDNAKNTVYLQMNSLKPEDTAVYYCAAVLYSRLYWYRLDYWGQGTQVTVSS,low polyreactivity
22,QVQLVESGGGLVQAGGSLRLSCAPSGGTFTHNAMGWYRQAPGKEWELVAAISRSGGSTSYADSVKGRFTISRYNAMNTVYLQMNSLKPEDTAVYYCAALISRQRSYSRDYWGQGTQVTVSS,high polyreactivity

row,Sequence,polyreactivity (PSR sort gate)
1,QVQLVESGGGLVQAGGSLRLSCAASGRTFYRKAMGWYIQAPGKEREFVAVISVSGGSTYYADSVKGRFTISRDNAKITVYLQMNSLKPEDTAVYYCAKRGPVRKTAYDYWGQGTQVTVSS,low polyreactivity
2,QVQLVESGGGLVQAGGSLRLSCAASGSIFAKNAMGWYRQAPGKERELVAGIDFSGGSTYYADSVKGRFTLSRDNAKNTVYLQMNSLKPEDTAVYYCAADWAYKYELDYWGQGTQLTVSS,low polyreactivity
3,QVQLVESGGGLDQAGGSLRLSCAASGRISYRYAMGSYRQAPGKEMELVASISSGVSTYYADSVKGRFTISRDNAKNTVYLQMHSLKPEDSAVYFCAAAYWFHNDYWGLGTQVTVSS,high polyreactivity
4,QVQLVESGGGLVQAGGSLRLSSAASGRTFDRNAMGWYRQAPGKERELVAGITRSGDSTYADSVKGRFTISRDNAKITVYLQMNSLKPEDTAVYYCNKEGTVGGTRGYWGQGTQVTVSS,low polyreactivity
5,QVQLVESGGGLVQAGGSLRLSCAASGSTFCDYTMGVYRQAPGKERELLAAISRRGGITYYADSVKGRFTISRDNAKNTVYLQMNSLKPEDTAVYYCNKVYNPKSYIQYDYWGQGTQVTVSS,high polyreactivity
6,QVQLVESGGGLVQAGGSLRLSCAASGSTSRYYDMGWYRQAPGTERELVAAITWSGGTTYYADSVKGRFTISRDNAKNTVYLQMNSLKPEDTAVYYCAASRRGGLYTRYHYWGQGTQVTVSS,low polyreactivity
7,QVQLVESGGGLVQARGSHRLSCAASGSIFVINAMGWYRQAPGKERELVAAISYSGTGTYFADSVKGRFTISRDNAKNTVYLQMNSLKPEDTAVYYCAADYYYRYRIYDYWGQGTQVTVSS,low polyreactivity
8,QVQLVESGGGLVQAGGSLRLSCAASGRIFGYYAMGCYRQAPGKERELVAAIRWGGGRTYADSVKGRFTISRDNAKNTVYLQMNSLKPEDTAVDYCAARFTRTRPLWRARYGYWGQGTQVTVSS,high polyreactivity
9,QVQLVESGGGLVQAGGSLRLSCAASGSTFEVYTMGWYRQAPGKARELVADITWSGGNTYYADSVKGRYTISRDNAKNTVYLQMNSLKPEDTAVYYCAVDGGEFSSYGYWGQGTQVTVSS,low polyreactivity
10,QVQLVESGGGLVQAGGSLRLSCAASGSIFTFYAMGWYRQAPGKERELVATITWLGGSTYADAVKGRFTISRDNAKNTVYLQMNSLKPEDTAVYYCNADYRSYWYKLDYWGQGTQVTVSS,high polyreactivity
11,QVQLVESGGGLVQAGGSLRLSCAAAGLIFSAYAMGWYRQAPGKEREVVAAISRSGGITYYADSVKGRFTISRDNAKNTVYLQMISLKPEDTAVYYCNARWYDPTLKFGYWGQGTQVTVSS,high polyreactivity
12,QFQLVESGGGLVQAGGSLRLSCAAYGSTLYPYEMGWYRQAPGKERELVAAIDSGGSKNYADSVKGRFTISRDNAKNTVYLQMNSLKPEDTAVYYCAADGGVAWGYGYWGQGTQVTVSS,low polyreactivity
13,QVQLVESGGGLVQEGGSLRLICAASGIIFYFYAMGWYRQAPGKERELVAAISSGGGSTYYADSVKGRFTISRDNAKNTVYLQMNSLKPEDTAVYYCAAKIGRNFDWGQGTQVTVSS,high polyreactivity
14,QVQLVESGGGLVQAGGSLRLSCAASGSIFYPYAMGWYRQAPGKERELLASITINDGSTYYADSVKGRFTISRDNAKNTVYLQMNSLKPEDTAVYYCNVEPVPGFGSEYEYWGQGTQVTVSS,low polyreactivity
15,QVQLVESGGGLVQAGGSLRLSCAASGFILYFNAMGWYRQAPGKERELVAAITTDGGSTYYADSVKGRFTISRDNAKNTVYLQMNSLKPEDTAVYYCAADASTWYTEEYWGQGTQVTVSS,low polyreactivity
16,QVQLVESGGGLVQAGGSLRLSCAASGRTFISNAMGWYRQAPGKERELVATINSGGSTNYADSVKGRFTISRDNAKNTVYLQMNSLKPEDTAVYYCARRVRYKHYDYWGQGTQVTVSS,high polyreactivity
17,QVQLVESGGGLVQAGGSLRLSCAASGFIFDWYAMGWYRQAPGKERELVAAISYSGGSTYYADSVKGRFTISRDNAKNTVYLQMNSLKPEDTAVYYCNADIWYGDMDYWGQGTQVTVSS,high polyreactivity
18,QVQLVETGGGLVQAGGSLRLSCAASGRTFYFNTMGWYRQAPGKERELVAAISSGVNTYYADSVKGRFTISRDNAKNTVYLQMNSLKPEDTAVYYCAASARTYVQSGYWGQGTQVTVSS,high polyreactivity
19,QVQLVESGGGLVQAGGSLRLSCAASGSTFPLYAMGWYRQAPGKERELVAAITSGGGNTYYADSVKGRFTISRDNAKNTVYLQMNRLKPEDTAVYYCAAVGGYKSYYSYEYDYWGQGTQVTVSS,low polyreactivity
20,QVQLVESGGGLVQAGGSLRLTCAASGLTFSYNAMGWYRQAPGKERELVAAITVSGGRTYYADSVKGRFTISRDNAKNTVYLQMNSLKPEDTAVYYCNADYDEGYYGYLRYDYDYWGQGTQVTVSS,high polyreactivity
21,QVQLVESGGGLVQAGGSHRLSCAASGIIFPWYVMGWYRQAPGKERELVAAITQSGGSTFYADSLKGRFTISRDNAKNTVYLQMNCLKPEDTAVYYCHTEDFFKFPEMDSWGQGTQLTVSS,low polyreactivity
